Here are results for eight substances from patent US7132401B2, “Beta-secretase substrates and uses thereof” (Merck & Co., Inc., priority 2002, dated 2006).

This experiment has as its target β-secretase (Homo sapiens, UniProt P56817). The experiment is described as follows: β-secretase cleavage of peptide substrates and peptide libraries followed by LC/MS. The format is biochemical. The conditions noted are these: for Relative rates of hydrolysis: hydrolysis by β-secretase, Swedish mutant EVNLDAEF (SEQ ID NO: 257) = 1, each peptide 1 μM, pH 4.5, 37° C.; for rate of hydrolysis by β-secretase, times faster than the Swedish mutant sequence (SEQ ID NO: 257): relative to Swedish mutant APP sequence, peptides incubated simultaneously with β-secretase; for rate of cleavage (depletion of full length substrate) of P1′ peptide library components: P1′ peptide library treated with β-secretase, FIG. 2; for formation of C-terminal cleavage products from the P1′ peptide library: FIG. 3. Here is the method:
Following synthesis and purification, each of the eight peptide libraries was incubated with the enzyme β-secretase and the relative rates of cleavage of each individual peptide library component was followed with liquid chromatography/mass spectrometry (LC/MS) with analysis of both the depletion of the full length peptide substrate, as well as the formation of peptide cleavage fragments. The enzyme β-secretase was incubated at concentrations ranging from 5 to 50 nM at pH 4.5 with each of the peptide libraries and/or mixtures of synthetic peptide substrates.
The mixtures of substrates and enzyme were incubated in an Agillent Technology 1100 series liquid chromatograph with a temperature controlled autosampler. The temperature for all β-secretase enzymatic assays was held constant at 37° C. A 100 μl aliquot of each reaction mixture was injected onto a 1×50 mm C18 reverse phase 1c column (Metachem Technologies Inc., Torrance, Calif.) every two hours to monitor reaction progress. After injection, a highly optimized solvent gradient was delivered to the column to maximize resolving power for each of the substrate library components. […] After the LC/MS run, the data were processed by selected-ion chromatograms for each of the peptide substrate library components by extracting 0.5 Da mass windows surrounding the calculated mass values of each of the peptides.

Chain of β-secretase (P56817 46-501): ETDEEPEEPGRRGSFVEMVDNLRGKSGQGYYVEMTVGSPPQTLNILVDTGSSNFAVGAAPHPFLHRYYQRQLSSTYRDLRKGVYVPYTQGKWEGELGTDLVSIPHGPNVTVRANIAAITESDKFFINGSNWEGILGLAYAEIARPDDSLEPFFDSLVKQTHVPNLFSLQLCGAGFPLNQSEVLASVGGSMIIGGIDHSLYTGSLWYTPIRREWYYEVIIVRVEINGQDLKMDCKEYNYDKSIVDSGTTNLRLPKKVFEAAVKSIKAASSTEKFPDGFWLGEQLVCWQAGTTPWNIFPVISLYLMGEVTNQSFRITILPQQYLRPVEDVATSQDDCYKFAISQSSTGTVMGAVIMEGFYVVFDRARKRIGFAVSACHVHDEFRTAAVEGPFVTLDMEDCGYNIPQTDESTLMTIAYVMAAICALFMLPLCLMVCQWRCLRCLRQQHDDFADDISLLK

For the substance EVNFAAEF (Beta-Secretase Cleavage Site), the “Relative rates of hydrolysis” value turned out to be 17.
As to EVNFAVEF (Beta-Secretase Cleavage Site), the “Relative rates of hydrolysis” value worked out at 30 and the “rate of hydrolysis by β-secretase, times faster than the Swedish mutant sequence (SEQ ID NO: 257)” value is “roughly 30 times”.
As for EVNFEAEF (Beta-Secretase Cleavage Site), the “Relative rates of hydrolysis” value is given as 17.
Regarding EVNFEVEF (Beta-Secretase Cleavage Site), the “Relative rates of hydrolysis” value turned out to be 60 and the “rate of hydrolysis by β-secretase, times faster than the Swedish mutant sequence (SEQ ID NO: 257)” value came to 60 times.
In the case of “EVNLDAEF (Beta-Secretase Cleavage Site) [8-mer of Swedish mutant APP around the β-secretase cleavage site, reference compound]”, the “rate of cleavage (depletion of full length substrate) of P1′ peptide library components” value (“rate of cleavage” for short) was “intermediate”, the “formation of C-terminal cleavage products from the P1′ peptide library” value is recorded as “less conducive to β-secretase hydrolysis than either Glu or Ala” and the “Relative rates of hydrolysis” value is listed as 1.
As to “P1′=Glu: P1′ peptide library component: Swedish mutant APP 8-mer with Glu at P1′ (EVNLEAEF)”, the “rate of cleavage” value was “most rapidly hydrolyzed”; the “formation of C-terminal cleavage products from the P1′ peptide library” value is “more rapid and comparable rates of formation”.
On to “P1′=Gly: P1′ peptide library component: Swedish mutant APP 8-mer with Gly at P1′ (EVNLGAEF)”, for which the “rate of cleavage” value is reported as “not cleaved”.
For the substance “P1′=Pro: P1′ peptide library component: Swedish mutant APP 8-mer with Pro at P1′ (EVNLPAEF)”, the “rate of cleavage” value is reported as “not cleaved”.
